Reference: the supplement of paper PMC9170038

tested on: MS2 coat protein; assay: apparent KD of MS2 coat protein; higher = weaker reporter binding; conditions: Eterna round: R107; input ligand: theophylline 20 uM
Method in brief: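 Normalised binding curves from single clusters were fitted, and the median fit for each design is given as apparent KD. The clusters held designed RNA switches transcribed on-chip from Illumina sequencing clusters. These were titrated with SNAP-549-labelled MS2 coat protein (twofold steps from 0.7 or 1.5 nM to 3 µM, 0.8–1.5 h to 10–20 min per step) in 100 mM Tris-HCl pH 7.5, 80 mM KCl, 4 mM MgCl2, without or with constant ligand.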

Sequence	apparent KD of MS2 coat protein
AACAUGAGGAUCACCCAUGUAAAACCGGUACGAGGACCGGUACGGCCGCCACUCGAAACAUGAGGAUCACCCAUGUAAUAAUAUU [Same State Trypophan A GF 21]	75 nM
AGAGUCAGACAAAAGUCUGGCUCAGCCGAAGGAGCGUCCGAAAGGACAGGUAGGUCGCGGUUACUUGAGGAUCACCCAAGUUCCU [ArgAS 26 #OpenEnded #AlternativeMS2]	151 nM
GGAGUAGGAAACUAUUCCAAUCCUCGUGAACGAGGACCGGUACGGCCGCCACUCGAUAAUUAAUAACAUGAGGAUCACCCAUGUA [Ex Tryptophan A 21]	80.4 nM
UGUAUGGACUGAAGGAGCGGAAAAUAACCAUGAGGAUCACCCAUGGAAUAGGCGAAAGCCAUCCAGGUAGGUCGCAGUCCAUACU	32.4 nM
GCGGUCGGAGUGCGGCGUGUUCCGCUCCGUCGAGGACCGGUACGGCCGCCACUCGACAUGAGGAUCACCCAUGUCCGACCGCGCG [#1 Exclusion - Tryptophan A Attempt #5 (HarryS)]	66.5 nM
ACAUGAGGAUCACCCAUGUUCCUCGCCGAUACCAGUGAAGAAGAACGCCCUUGGCAGCGGAAAGAAUAUUUUGGAGAUGAGAUAU [6.V]	272 nM
CUCUGAGUGAGUAAUCACUCAGAGGCGGAUACCAGCGAGGUCCAUCGCCCUUGGCAGCCGAACAUGAGGAUCACCCAUGUCGGUA [#1 Same State - Theophylline A Attempt #24 (HarryS)]	12.2 nM
ACGAUAGGACUUGAGGAUCACCCAGGUGAUACCAGCCUGGAAACAGGCCCUUGGCAGCACUAAUACUCCAAUAACCUAUCGAAUA [TheoAX 16 #MicroSwitchBubble #AlternativeMS2]	347 nM
AUUCUUUACUGAAGGAGCGUCAUUCUUACAUGAGGAUCACCCAUGUUUAUUCUUUAUGAUUGACAGGUAGGUCGCAGAUUUUUUA [#11 Same State - Arginine B]	24.4 nM
UCAUGCAGGUCGGCCGCCACUACACACAUGAGGAUCACCCAUGUAGUUACUGGGUGAAGUGGCAGUAGGACCGGGACCUGCACAU [Brourdmod16]	369 nM
GGUAUGUAUUCGGAAACGAAUGCAUACCAACGAGGACCGGUACGGCCGCCACUCGCCGUCCUCAAACAUGAGGAUCACCCAUGUA [Ex Tryptophan A 7]	30.5 nM
AGUCCUCUGUACCCUGAUGCCCUCACUUUACGAGGACCGGUACGGCCGCCACUCGAAUCCCAACAUGAGGAUCACCCAUGUCGAC [theeternabot_exclusion_MS2_Trp_A_26]	40 nM
AGUGUUAUAACUGAUACCAGACUUUUGCUUAUACAUGAGGAUCACCCAUGUAAAAUGGUUGUCCCUUGGCAGCAGAAGUUACACA [JR_SSTheophyB_Sub008]	96.1 nM
UAAAACAUGAGGAUCACCCAUGUAAUUGAUACCAGAGUGAUGAUCCUCCCUUGGCAGCAAAUAACGCAUUGAUUACAAUGCGAAA [Mat - Same State Theophlline A - Mod of Eli - D27]	105 nM
UAUAUAUAUAUUGAUACCAGCAGAGAAAACGUUUAUCCUAACAUGAGGAUCACCCAUGUAUGCCCUUGGCAGCGAUAUAUAUAUA [8.C]	31.3 nM
CGACACCAGGCAAUCCAUCACCCGGCUGAUACCAGCUCUUUUGGAAGCCCUUGGCAGCAGAGAACAUGAGGAUCACCCAUGUCAG [theeternabot_exclusion_MS2_Theo_A_18]	16.7 nM
UCGGAGAAGUCGGCCGCCACUGAACUCUUGUUCUACAUGAGGAUCACCCAUGUUCCUUUGUUUAACAGGACCGGGACUUAUACGA [JR_SSTryptoB_Sub009]	283 nM
GGAUCAGGAUCGGCCGCCACUGAUAGUGAUCCAACGACAUGAGGAUCACCCAUGUACAUUUUAAUCAGGACCGGGAUCAAGUUCC [Tryp B Ex t7]	189 nM

same assay, conditions: Eterna round: R107; input ligand: theophylline 2 mM

Sequence	apparent KD of MS2 coat protein
GCGUGUUAUAGUCAUCGUGAGCGUCCAUCCCGAGGACCGGUACGGCCGCCACUCGCCACAGGACAUGAGGAUCACCCAUGUUAUG [theeternabot_exclusion_MS2_Trp_A_3]	13.8 nM
UGUAUGUGAUCUGAUACCAGAGUGAAUAACCUGAGGAUCACCCUGGUAAGGCGAAAGCCACUCCCUUGGCAGCAGAUCGCAUACU	26.6 nM
UUGUUGUUUGGAAGGAGCGUGUAUGAUUAAGAACAUGAGGAUCACCCAUGUUGUAGGAUAGCACAGGUAGGUCGCCGGGUGGUGG [11.W]	23.5 nM
UUAUAAGUACCGGUCCUCAGAUCCUCAUGACGAGGACCGGUACGGCCGCCACUCGAAACAUGAGGAUCACCCAUGUAAUAAUAUU [Brourdmod07]	23.3 nM
AUAAUAAUCAUGGGUGAAGGUCCUCGCAAACGAGGACCGGUACGGCCGCCACUCGAACAUGAGGAUCACCCAUGUGUGAGGACCU [M' - T' - T - MS2 - T'' Design 2]	74.1 nM
GGUGGCUGGAUUGAUACCAGCCACCACCGAUAGACCACAUGAGGAUCACCCAUGUUGGGUGGCCCUUGGCAGCAGUCCAGCUGCC [#1 Same State - Theophylline B Attempt #9 (HarryS)]	828 nM
ACAUGAGGGAUGGAUACCAGCGACAUGAGGAUCACCCAUGUAUGAGGAUCACCCAUGUUAUGCCCUUGGCAGCCACAAACAUGAG [UUYMULLIN]	117 nM
GCACCAGGUACGGAUACCAGACAUUGCCAAUUGGGUGAACAUGAGGAUCACCCAUGUUAAGUCCCUUGGCAGCCGUACCUGGUGC [ETB NP+V+V2 #6 Same Structure]	178 nM
ACAUGAGGAUCACCCAUGUGUGUAAAUCCUCGAGGACCGGUACGGCCGCCACUCGAUCGAGUGUAAGUUGAAUGUAACAUUCAAC [whbob_SS_trypto A_2s8]	108 nM
AGUCUCAGUGGAAGGAGCGUCGCGACUGCUACAUGAGGAUCACCCAUGUCGCCUUGAGCGCGACAGGUAGGUCGCCACGGUAGGC [Erraraorle]	20.8 nM
UAAUAAAUAAAUCCAAGGUGAAGGUCAGAUACCAGCCAGAUAACUGGCCCUUGGCAGCUGAAUAAGCUUGAGGAUCACCCAAGUA [TheoAS 26 #OpenEnded #MS2Late #AlternativeMS2]	275 nM
CCCAAUUUCCGAGAUAUGGGUCCAACUAAACGAGGACCGGUACGGCCGCCACUCGACUACAAACAUGAGGAUCACCCAUGUAAAG [theeternabot_exclusion_MS2_Trp_A_40]	19.8 nM
AACAUGAGGAUCACCCAUGUAAAACCGGUACGAGGACCGGUACGGCCGCCACUCGAAACAUGAGGAUCACCCAUGUAAUAAUAUU [Same State Trypophan A GF 21]	68.6 nM
AGAGUCAGACAAAAGUCUGGCUCAGCCGAAGGAGCGUCCGAAAGGACAGGUAGGUCGCGGUUACUUGAGGAUCACCCAAGUUCCU [ArgAS 26 #OpenEnded #AlternativeMS2]	177 nM
GGAGUAGGAAACUAUUCCAAUCCUCGUGAACGAGGACCGGUACGGCCGCCACUCGAUAAUUAAUAACAUGAGGAUCACCCAUGUA [Ex Tryptophan A 21]	89 nM
UGUAUGGACUGAAGGAGCGGAAAAUAACCAUGAGGAUCACCCAUGGAAUAGGCGAAAGCCAUCCAGGUAGGUCGCAGUCCAUACU	36.6 nM
